Measured values from patent US20220259318A1 (Hoffmann-La Roche, published 2022).
Where “and” joins values, the source holds several entries; their conditions need not be identical. Equal values may be shown once. Read-outs that look alike come from different tables or passages of the source.

B1: 5E11_P1AE5723 (antibody, V domains shown)
VH: EVQLLESGGGLVQPGGSLRLSCAASGFTFSKYAMAWVRQAPGKGLEWVASISTGGVNTYYADSVKGRFTISRDNSKNTLYLQMNSLRAEDTAVYYCATHTGDYFDYWGQGTMVTVSS
VL: EIVLTQSPGTLSLSPGERATLSCRASQSVSISGINLMNWYQQKPGQQPKLLIYHASILASGIPDRFSGSGSGTDFTLTISRLEPEDFAVYYCQQTRESPLTFGQGTRLEIK
notes: Humanized 5E11 IgG; PGLALA Fc implied by the CAR-J assay; also called 5E11_VH1c + 5E11_VL2b
B2: P1AE5718 (antibody, V domains shown)
VH: ELQLLESGGGLVQPGGSLRLSCAASGFTFSKYAMAWVRQAPGKGLEWVASISTGGVNTYYRDSVKARFTISRDNAKNTLYLQMNSLRAEDTAVYYCATHTGDYFDYWGQGTMVTVSS
VL: DIQMTQSPSSLSASVGDRVTITCRASQSVSISGINLMNWYQQKPGKQPKLLIYHASILASGVPSRFSGSGSGTDFTLTISSLQPEDFATYYCQQTRESPLTFGQGTRLEIK
notes: Humanized 5E11 IgG; PGLALA Fc implied by the CAR-J assay; also called 5E11_VH1b + 5E11_VL3a
B3: P1AE5725 (antibody, V domains shown)
VH: EVQLLESGGGLVQPGGSLRLSCAASGFTFSKYAMAWVRQAPGKGLEWVASISTGGVNTYYADSVKGRFTISRDNSKNTLYLQMNSLRAEDTAVYYCATHTGDYFDYWGQGTMVTVSS
VL: DIQMTQSPSSLSASVGDRVTITCRASQSVSISGINLMNWYQQKPGQQPKLLIYHASILASGVPSRFSGSGSGTDFTLTISSLQPEDFATYYCQQTRESPLTFGQGTRLEIK
notes: Humanized 5E11 IgG; PGLALA Fc implied by the CAR-J assay; also called 5E11_VH1c + 5E11_VL3b
B4: P1AE5731 (antibody, V domains shown)
VH: ELQLLESGGGLVQPGGSLRLSCAASGFTFSKYAMAWVRQAPGKGLEWVASISTGGVNTYYADSVKGRFTISRDNAKNTLYLQMNSLRAEDTAVYYCATHTGDYFDYWGQGTMVTVSS
VL: DIQMTQSPSSLSASVGDRVTITCRASQSVSISGINLMNWYQQKPGQQPKLLIYHASILASGVPSRFSGSGSGTDFTLTISSLQPEDFATYYCQQTRESPLTFGQGTRLEIK
notes: Humanized 5E11 IgG; PGLALA Fc implied by the CAR-J assay; also called 5E11_VH1d + 5E11_VL3b
B5: P1AE5724 (antibody, V domains shown)
VH: EVQLLESGGGLVQPGGSLRLSCAASGFTFSKYAMAWVRQAPGKGLEWVASISTGGVNTYYADSVKGRFTISRDNSKNTLYLQMNSLRAEDTAVYYCATHTGDYFDYWGQGTMVTVSS
VL: DIQMTQSPSSLSASVGDRVTITCRASQSVSISGINLMNWYQQKPGKQPKLLIYHASILASGVPSRFSGSGSGTDFTLTISSLQPEDFATYYCQQTRESPLTFGQGTRLEIK
notes: Humanized 5E11 IgG; PGLALA Fc implied by the CAR-J assay; also called 5E11_VH1c + 5E11_VL3a
B6: P1AE5730 (antibody, V domains shown)
VH: ELQLLESGGGLVQPGGSLRLSCAASGFTFSKYAMAWVRQAPGKGLEWVASISTGGVNTYYADSVKGRFTISRDNAKNTLYLQMNSLRAEDTAVYYCATHTGDYFDYWGQGTMVTVSS
VL: DIQMTQSPSSLSASVGDRVTITCRASQSVSISGINLMNWYQQKPGKQPKLLIYHASILASGVPSRFSGSGSGTDFTLTISSLQPEDFATYYCQQTRESPLTFGQGTRLEIK
notes: Humanized 5E11 IgG; PGLALA Fc implied by the CAR-J assay; also called 5E11_VH1d + 5E11_VL3a
B7: P1AE5719 (antibody, V domains shown)
VH: ELQLLESGGGLVQPGGSLRLSCAASGFTFSKYAMAWVRQAPGKGLEWVASISTGGVNTYYRDSVKARFTISRDNAKNTLYLQMNSLRAEDTAVYYCATHTGDYFDYWGQGTMVTVSS
VL: DIQMTQSPSSLSASVGDRVTITCRASQSVSISGINLMNWYQQKPGQQPKLLIYHASILASGVPSRFSGSGSGTDFTLTISSLQPEDFATYYCQQTRESPLTFGQGTRLEIK
notes: Humanized 5E11 IgG; PGLALA Fc implied by the CAR-J assay; also called 5E11_VH1b + 5E11_VL3b
B8: 5E11_P1AE5728 (antibody, V domains shown)
VH: ELQLLESGGGLVQPGGSLRLSCAASGFTFSKYAMAWVRQAPGKGLEWVASISTGGVNTYYADSVKGRFTISRDNAKNTLYLQMNSLRAEDTAVYYCATHTGDYFDYWGQGTMVTVSS
VL: EIVLTQSPGTLSLSPGERATLSCRASQSVSISGINLMNWYQQKPGQQPRLLIYHASILASGIPDRFSGSGSGTDFTLTISRLEPEDFAVYYCQQTRESPLTFGQGTRLEIK
notes: Humanized 5E11 IgG; PGLALA Fc implied by the CAR-J assay; also called 5E11_VH1d + 5E11_VL2a
B9: ET150-5-TCB (bispecific antibody, human IgG1, lambda, L234A L235A)
light 1: QSVLTQPPSASGTPGQRVTISCSGSRSNVGGNYVFWYQQVPGATPKLLIYRSNQRPSGVPDRFAGSKSGSSASLAISGLRSEDEADYYCATWDDSLSGFVFGTGTKVTVLGQPKAAPSVTLFPPSSKKLQANKATLVCLISDFYPGAVTVAWKADSSPVKAGVETTTPSKQSNNKYAASSYLSLTPEQWKSHRSYSCQVTHEGSTVEKTVAPTECS
light 2: EVQLLESGGGLVQPGGSLRLSCAASGFTFSTYAMNWVRQAPGKGLEWVSRIRSKYNNYATYYADSVKGRFTISRDDSKNTLYLQMNSLRAEDTAVYYCVRHGNFGNSYVSWFAYWGQGTLVTVSSASVAAPSVFIFPPSDEQLKSGTASVVCLLNNFYPREAKVQWKVDNALQSGNSQESVTEQDSKDSTYSLSSTLTLSKADYEKHKVYACEVTHQGLSSPVTKSFNRGEC
heavy 1: EVQLVESGGGLVKPGGSLRLSCAASGFTFSDYYMSWIRQAPGKGLEWVSYISSSGSTIYYADSVKGRFTISRDNAKNSLYLQMNSLRAEDTAVYYCARGYGKAYDQWGQGTLVTVSSASTKGPSVFPLAPSSKSTSGGTAALGCLVEDYFPEPVTVSWNSGALTSGVHTFPAVLQSSGLYSLSSVVTVPSSSLGTQTYICNVNHKPSNTKVDEKVEPKSCDKTHTCPPCPAPEAAGGPSVFLFPPKPKDTLMISRTPEVTCVVVDVSHEDPEVKFNWYVDGVEVHNAKTKPREEQYNSTYRVVSVLTVLHQDWLNGKEYKCKVSNKALGAPIEKTISKAKGQPREPQVCTLPPSRDELTKNQVSLSCAVKGFYPSDIAVEWESNGQPENNYKTTPPVLDSDGSFFLVSKLTVDKSRWQQGNVFSCSVMHEALHNHYTQKSLSLSPGK
heavy 2: not shown
B10: 5F11_P1AE5741 (antibody, V domains shown)
VH: EVQLVESGGGVVQPGRSLRLSCAASGFSFSNYGMAWVRQAPGKGLEWVASISTGGGNTYYRDSVKGRFTISRDNAKNTLYLQMNSLRAEDTAVYYCTRHDRGGLYWGQGTMVTVSS
VL: DIVMTQSPLSLPVTPGEPASISCRSSKSLLHSNGITYVYWYLQKPGQSPQLLIYRMSNRASGVPDRFSGSGSGTDFTLKISRVEAEDVGVYHCGQLLENPYTFGQGTKLEIK
notes: Humanized 5F11 IgG; PGLALA Fc implied by the CAR-J assay; also called 5F11_VH1b + 5F11_VL2a
B11: P1AE5763 (antibody, V domains shown)
VH: EVQLVESGGGLVQPGGSLRLSCAASGFSFSNYGMAWVRQAPGKGLEWVASISTGGGNTYYADSVKGRFTISRDNAKNTLYLQMNSLRAEDTAVYYCTRHDRGGLYWGQGTMVTVSS
VL: DIVMTQSPDSLAVSLGERATINCKSSKSLLHSNGITYVYWYQQKPGQPPKLLIYRMSNLASGVPDRFSGSGSGTDFTLTISSLQAEDVAVYHCGQLLENPYTFGQGTKLEIK
notes: Humanized 5F11 IgG; PGLALA Fc implied by the CAR-J assay; also called 5F11_VH2d + 5F11_VL2b
B12: 5F11_P1AE5745 (antibody, V domains shown)
VH: QVQLVESGGGVVQPGRSLRLSCAASGFSFSNYGMAWVRQAPGKGLEWVASISTGGGNTYYADSVKGRFTISRDNSKNTLYLQMNSLRAEDTAVYYCTRHDRGGLYWGQGTMVTVSS
VL: DIVMTQSPLSLPVTPGEPASISCRSSKSLLHSNGITYVYWYLQKPGKSPQVLIYRMSNLASGVPDRFSGSGSGTDFTLKISRVEAEDVGVYHCGQLLENPYTFGQGTKLEIK
notes: Humanized 5F11 IgG; PGLALA Fc implied by the CAR-J assay; also called 5F11_VH1c + 5F11_VL1b
B13: P1AE5744 (antibody, V domains shown)
VH: QVQLVESGGGVVQPGRSLRLSCAASGFSFSNYGMAWVRQAPGKGLEWVASISTGGGNTYYADSVKGRFTISRDNSKNTLYLQMNSLRAEDTAVYYCTRHDRGGLYWGQGTMVTVSS
VL: DIVMTQSPLSLPVTPGEPASISCRSSKSLLHSNGITYVYWYLQKPGQSPQVLIYRMSNLASGVPDRFSGSGSGTDFTLKISRVEAEDVGVYHCGQLLENPYTFGQGTKLEIK
notes: Humanized 5F11 IgG; PGLALA Fc implied by the CAR-J assay; also called 5F11_VH1c + 5F11_VL1a

Experiments:
[1] = target: T1, human GPRC5D (human, UniProt Q9NZD1 1-345); experiment: cell-based or functional assay
[2] = target: T1, human GPRC5D; experiment: cell-based or functional assay; remark: listed apart in the source
[3] = target: T1, human GPRC5D; experiment: cell ELISA, CHO hu GPRC5D (EC/IC50 rel)
Method in brief: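 Stably transfected CHO cells seeded overnight, then incubated 2 h at 4° C with antibody IgGs in 15-point 1:3 dilutions from 30 μg/ml. Cells fixed with 0.05% glutaraldehyde; binding detected with HRP anti-human Ig and TMB, absorbance at 370/492 nm.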

[4] = target: T1, human GPRC5D; experiment: cell-based or functional assay; remark: listed apart in the source
[5] = target: T1, human GPRC5D; experiment: cell-based or functional assay; remark: listed apart in the source

T1 sequence (Q9NZD1 whole entry): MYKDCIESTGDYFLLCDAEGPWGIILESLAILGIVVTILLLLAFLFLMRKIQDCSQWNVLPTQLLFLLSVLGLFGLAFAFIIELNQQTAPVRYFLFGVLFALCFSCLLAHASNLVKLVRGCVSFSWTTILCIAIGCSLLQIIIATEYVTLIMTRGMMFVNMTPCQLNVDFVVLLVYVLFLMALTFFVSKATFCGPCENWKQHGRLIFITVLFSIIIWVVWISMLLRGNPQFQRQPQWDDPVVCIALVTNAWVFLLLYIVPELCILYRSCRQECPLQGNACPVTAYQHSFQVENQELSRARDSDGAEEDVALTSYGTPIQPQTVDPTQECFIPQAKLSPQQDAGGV

| Binder | CAR-J2 EC50 [ng/mL] (PGLALA-CAR-J activation, L363 target cells) [1] | EC50 values of CAR-J activation [2] [ng/mL] | EC50 [3] | CAR-J2 EC50 [ng/mL] (PGLALA-CAR-J activation, L363 target cells) [5] | also measured |
| --- | --- | --- | --- | --- | --- |
| B1 | 3.7 | 3.7 | 0.006 µg/mL and 0.04 nM | – | – |
| B2 | 105 | 105 | 0.0121 µg/mL and 0.08 nM | – | – |
| B3 | 10.9 | – | 0.0051 µg/mL and 0.03 nM | – | – |
| B4 | 2.3 | – | 0.0052 µg/mL and 0.03 nM | – | – |
| B5 | 3.6 | – | 0.0053 µg/mL and 0.04 nM | – | – |
| B6 | 3.5 | 3.5 | 0.008 µg/mL and 0.05 nM | – | – |
| B7 | 2.8 | – | 0.0166 µg/mL and 0.11 nM | – | – |
| B8 | 5.6 | 5.6 | 0.0079 µg/mL and 0.05 nM | – | – |
| B9 | – | – | – | – | EC50 of anti-GPRC5D-TCB mediated killing, AMO-1 [4]: 0.0835 nM; EC50 of anti-GPRC5D-TCB mediated killing, L363 [4]: 0.768 nM; EC50 of anti-GPRC5D-TCB mediated killing, NCI-H929 [4]: 0.833 nM; EC50 of anti-GPRC5D-TCB mediated killing, RPMI-8226 [4]: 0.797 nM |
| B10 | – | 1.4 | 0.0067 µg/mL and 0.04 nM | 1.4 | – |
| B11 | – | 5.47 | 0.006 µg/mL and 0.04 nM | 5.47 | – |
| B12 | – | 1.62 | 0.0097 µg/mL and 0.06 nM | 1.62 | – |
| B13 | – | 3.63 | 0.0086 µg/mL and 0.06 nM | 3.63 | – |
